Laboratory results published in paper PMC2275666 (The EMBO Journal, 2008).
Substitutions are numbered along the chain they refer to.

Experiments:
Assay in all cases: pull-down
6H–hTFIIEα S365E = target: T1, 6H–hTFIIEα S365E (human, UniProt P29083 1-439, S365E)
T1 sequence: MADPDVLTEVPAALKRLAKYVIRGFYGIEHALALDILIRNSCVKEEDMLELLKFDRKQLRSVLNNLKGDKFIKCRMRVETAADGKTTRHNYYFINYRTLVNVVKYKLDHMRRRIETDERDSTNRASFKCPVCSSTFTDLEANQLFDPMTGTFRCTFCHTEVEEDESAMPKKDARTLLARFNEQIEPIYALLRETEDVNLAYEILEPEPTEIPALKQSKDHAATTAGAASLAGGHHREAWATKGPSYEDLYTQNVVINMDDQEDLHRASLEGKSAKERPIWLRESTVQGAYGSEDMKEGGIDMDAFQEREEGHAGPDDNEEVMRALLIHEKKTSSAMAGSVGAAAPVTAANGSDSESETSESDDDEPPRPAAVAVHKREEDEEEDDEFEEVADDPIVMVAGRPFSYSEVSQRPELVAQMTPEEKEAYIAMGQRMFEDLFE

6H–hTFIIEα D380A = target: T2, 6H–hTFIIEα D380A (human, UniProt P29083 1-439, D380A)
T2 sequence: T1 sequence with E365S, D380A

[1] = target: T3, 6H–hTFIIEα wild type (full-length hTFIIEα) (human, UniProt P29083 1-439)
T3 sequence: T1 sequence with E365S

6H–hTFIIEα F387E = target: T4, 6H–hTFIIEα F387E (human, UniProt P29083 1-439, F387E)
T4 sequence: T1 sequence with E365S, F387E

6H–hTFIIEα D393A = target: T5, 6H–hTFIIEα D393A (human, UniProt P29083 1-439, D393A)
T5 sequence: T1 sequence with E365S, D393A

Measured: binding result

B1: GST-tagged hTFIIEβ (natural protein)
chain: MDPSLLRERELFKKRALSTPVVEKRSASSESSSSSSKKKKTKVEHGGSSGSKQNSDHSNGSFNLKALSGSSGYKFGVLAKIVNYMKTRHQRGDTHPLTLDEILDETQHLDIGLKQKQWLMTEALVNNPKIEVIDGKYAFKPKYNVRDKKALLRLLDQHDQRGLGGILLEDIEEALPNSQKAVKALGDQILFVNRPDKKKILFFNDKSCQFSVDEEFQKLWRSVTVDSMDEEKIEEYLKRQGISSMQESGPKKVAPIQRRKKPASQKKRRFKTHNEHLAGVLKDYSDITSSK
binds: all assays above
